B3: Swc5 (natural protein, S. cerevisiae, UniProt P38326 1-303, looked up)
chain: MPEVETKIIPNEKEDEDEDGYIEEEDEDFQPEKDKLGGGSDDSDASDGGDDYDDGVNRDKGRNKVDYSRIESESGGLIKTRRARQAEEEYAKTHKYESLTVESIPAKVNSIWEELQEASKNRLLSSSGKVGSVLDGSKEARSTTAAQQEDKILIERNYKFAGETVHEKKWVSRSSAEGQEYLNSLKFKQQAPAAPVQLEKAVRTKSNESRQHLRRPLKRPPLLEQIISGGLRPKLTTLEKSQLDWASYVDRAGLNDELVLHNKDGFLARQEFLQRVGSAEDERYKELRRQQLAQQLQQDSEAS
notes: Swc5, subunit of SWR1, S. cerevisiae; also called small subunit Swc5; source: endogenous, S. cerevisiae; co-purified in the SWR1 complex

The assay “Swc5” deals with B3. Put plainly: cross-linking; ∼45 μg affinity-purified SWR1 cross-linked with 1 mM DSS d0/d12 in SWR1 buffer, 37°C, 30 min; trypsin, SEC enrichment, LC-MS/MS, xQuest (CX-MS). To be noted: both partners purified.
The next assay deals with T1, Swc3 (S. cerevisiae, UniProt P31376 1-625).
T1 construct: Swc3, C-Module subunit of SWR1, S. cerevisiae; source: endogenous, S. cerevisiae; co-purified in the SWR1 complex
T1 sequence (looked up): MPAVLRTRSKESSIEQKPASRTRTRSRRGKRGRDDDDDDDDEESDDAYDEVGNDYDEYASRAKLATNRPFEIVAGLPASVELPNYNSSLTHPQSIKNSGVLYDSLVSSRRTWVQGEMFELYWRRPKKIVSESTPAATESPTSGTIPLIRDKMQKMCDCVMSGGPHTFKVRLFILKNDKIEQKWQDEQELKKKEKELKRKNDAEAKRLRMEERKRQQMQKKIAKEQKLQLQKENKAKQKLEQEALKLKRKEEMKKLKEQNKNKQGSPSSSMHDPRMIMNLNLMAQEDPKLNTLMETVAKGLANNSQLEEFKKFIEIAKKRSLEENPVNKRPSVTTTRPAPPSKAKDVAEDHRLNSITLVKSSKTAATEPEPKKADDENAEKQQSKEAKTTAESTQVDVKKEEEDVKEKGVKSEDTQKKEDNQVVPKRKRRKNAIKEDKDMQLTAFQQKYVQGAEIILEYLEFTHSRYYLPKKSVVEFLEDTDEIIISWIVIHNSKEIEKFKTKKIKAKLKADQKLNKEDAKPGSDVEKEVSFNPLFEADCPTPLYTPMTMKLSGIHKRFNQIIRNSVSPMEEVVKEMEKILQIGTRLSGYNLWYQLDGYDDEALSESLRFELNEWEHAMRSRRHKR
Described as above. To be noted: both partners purified.

Assay [1] concerns the target T2, Swr1, FLAG-tagged catalytic subunit of the SWR1 complex (S. cerevisiae, UniProt Q05471 1-1514).
T2 construct: Swr1, catalytic ATPase subunit of the SWR1 complex, S. cerevisiae; HSA domain in the N-terminal half, split ATPase domain with long insert in the C-terminal half; also called Swr1-3xFLAG; Swr1 ATPase
Kind of assay: co-IP; FLAG affinity purification of SWR1 (or a subcomplex) from S. cerevisiae, eluted with 3× FLAG peptide; SDS-PAGE (4%-12% Bis-Tris), Coomassie or SYPRO Orange stain; band intensities normalised for protein size for the stoichiometry. To be noted: partners not purified.

Another assay has as its target T3, Act1 (S. cerevisiae, UniProt P60010 1-375).
T3 construct: Act1 (actin), N-Module subunit of SWR1, S. cerevisiae; source: endogenous, S. cerevisiae; co-purified in the SWR1 complex
Put plainly: cross-linking; ∼45 μg affinity-purified SWR1 cross-linked with 1 mM DSS d0/d12 in SWR1 buffer, 37°C, 30 min; trypsin, SEC enrichment, LC-MS/MS, xQuest (CX-MS). Particulars: both partners purified.

T2 sequence (Q05471 whole entry, the tested form may be a part, one chain of several): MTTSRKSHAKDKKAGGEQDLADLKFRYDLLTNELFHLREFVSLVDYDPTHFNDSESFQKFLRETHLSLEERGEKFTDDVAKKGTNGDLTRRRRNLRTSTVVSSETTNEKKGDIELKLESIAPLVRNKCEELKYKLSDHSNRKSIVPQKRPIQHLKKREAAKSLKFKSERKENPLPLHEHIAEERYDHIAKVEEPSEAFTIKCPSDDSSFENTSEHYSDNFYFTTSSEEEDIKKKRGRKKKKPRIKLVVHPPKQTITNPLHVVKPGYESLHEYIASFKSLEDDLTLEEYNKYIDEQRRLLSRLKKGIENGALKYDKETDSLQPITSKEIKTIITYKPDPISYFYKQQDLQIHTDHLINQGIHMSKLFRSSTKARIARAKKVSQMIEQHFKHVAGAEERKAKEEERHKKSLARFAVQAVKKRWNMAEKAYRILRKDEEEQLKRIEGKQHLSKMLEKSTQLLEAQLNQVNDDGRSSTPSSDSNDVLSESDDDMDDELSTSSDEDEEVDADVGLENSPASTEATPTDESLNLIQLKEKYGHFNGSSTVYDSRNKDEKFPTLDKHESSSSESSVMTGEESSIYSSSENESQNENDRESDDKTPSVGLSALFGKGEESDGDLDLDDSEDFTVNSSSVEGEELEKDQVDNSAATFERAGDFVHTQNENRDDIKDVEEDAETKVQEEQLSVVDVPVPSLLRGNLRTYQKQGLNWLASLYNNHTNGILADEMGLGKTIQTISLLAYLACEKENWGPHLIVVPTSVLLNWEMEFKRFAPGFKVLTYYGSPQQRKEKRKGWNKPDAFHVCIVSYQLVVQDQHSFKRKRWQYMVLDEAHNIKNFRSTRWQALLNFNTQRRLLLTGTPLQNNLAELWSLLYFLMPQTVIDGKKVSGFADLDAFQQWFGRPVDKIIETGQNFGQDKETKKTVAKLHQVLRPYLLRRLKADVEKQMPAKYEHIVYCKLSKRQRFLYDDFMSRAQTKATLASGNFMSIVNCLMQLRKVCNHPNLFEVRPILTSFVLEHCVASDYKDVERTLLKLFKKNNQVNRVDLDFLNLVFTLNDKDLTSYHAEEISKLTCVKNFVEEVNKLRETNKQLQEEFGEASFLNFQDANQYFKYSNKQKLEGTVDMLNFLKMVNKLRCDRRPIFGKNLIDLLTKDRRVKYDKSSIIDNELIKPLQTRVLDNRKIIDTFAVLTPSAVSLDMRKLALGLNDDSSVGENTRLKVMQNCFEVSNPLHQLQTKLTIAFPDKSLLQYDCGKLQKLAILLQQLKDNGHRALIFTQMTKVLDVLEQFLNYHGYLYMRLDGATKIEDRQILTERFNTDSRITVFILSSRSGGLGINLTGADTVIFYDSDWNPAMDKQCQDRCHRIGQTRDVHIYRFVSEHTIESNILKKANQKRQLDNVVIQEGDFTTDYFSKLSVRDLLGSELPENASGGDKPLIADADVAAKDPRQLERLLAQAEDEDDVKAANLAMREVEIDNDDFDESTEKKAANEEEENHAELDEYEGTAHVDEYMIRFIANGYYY

B1: Yaf9 (natural protein, S. cerevisiae, UniProt P53930 1-226, looked up)
chain: MAPTISKRIKTLSVSRPIIYGNTAKKMGSVKPPNAPAEHTHLWTIFVRGPQNEDISYFIKKVVFKLHDTYPNPVRSIEAPPFELTETGWGEFDINIKVYFVEEANEKVLNFYHRLRLHPYANPVPNSDNGNEQNTTDHNSKDAEVSSVYFDEIVFNEPNEEFFKILMSRPGNLLPSNKTDDCVYSKQLEQEEIDRIEIGIEKVDKEIDELKQKLENLVKQEAINGS
notes: Yaf9, N-Module subunit of SWR1, S. cerevisiae; source: endogenous, S. cerevisiae; co-purified in the SWR1 complex
In the case of B1, the binding result with Swc5 was “binds”.

B2: Arp4 (natural protein, S. cerevisiae, UniProt P80428 1-489, looked up)
chain: MSNAALQVYGGDEVSAVVIDPGSYTTNIGYSGSDFPQSILPSVYGKYTADEGNKKIFSEQSIGIPRKDYELKPIIENGLVIDWDTAQEQWQWALQNELYLNSNSGIPALLTEPVWNSTENRKKSLEVLLEGMQFEACYLAPTSTCVSFAAGRPNCLVVDIGHDTCSVSPIVDGMTLSKSTRRNFIAGKFINHLIKKALEPKEIIPLFAIKQRKPEFIKKTFDYEVDKSLYDYANNRGFFQECKETLCHICPTKTLEETKTELSSTAKRSIESPWNEEIVFDNETRYGFAEELFLPKEDDIPANWPRSNSGVVKTWRNDYVPLKRTKPSGVNKSDKKVTPTEEKEQEAVSKSTSPAANSADTPNETGKRPLEEEKPPKENNELIGLADLVYSSIMSSDVDLRATLAHNVVLTGGTSSIPGLSDRLMTELNKILPSLKFRILTTGHTIERQYQSWLGGSILTSLGTFHQLWVGKKEYEEVGVERLLNDRFR
notes: Arp4, actin-related protein, N-Module subunit of SWR1, S. cerevisiae; source: endogenous, S. cerevisiae; co-purified in the SWR1 complex
In the case of B2, the binding result in the assay with Swc3 is recorded as “binds”.

Regarding B3, the binding result (in assay [1]; in the assay with Act1) was “binds” each time.

For the origin of these results see PMC3776929 (Cell, 2013).
